Measurements from patent US20230212294A1.
Numbering of substitutions follows the chain as printed.

B1: IL-P5-C06 (antibody, V domains shown)
VH: QVQLQQSGPELVRPGVSVKISCKGSGYTFTDYAIHWAKQGHAKSLEWIGIINTYNGNSNYNQNFKGKATMTVDKSSSTAYMELTRLTSEDSAIYYCARNYGSSFNWYFDVWGQGTTLTVSS
VL: DIVLTQSPTTMAASPGEKITITCSASSSISSNYLHWYQQKPGFSPKLLIYSTSNLASGVPARFSGSGSGTSYSLTISSVEAEDAATYYCQQYSGYPLTFGAGTKLELK
B2: IL-P5-B01 (antibody, V domains shown)
VH: EVQLQESGPSLVKPSQTLSLTCSVTGDSITSGSWNWIRKFPGNKLEYMGYISYSGSIYYNPSLKSRISITRDTSKNQYYLQLNSVTTEDTATYYCARGNPAWFAYWGQGTLVTVSA
VL: DIVMTQSQKFMSTSVGDRVSVTCKASQNVGTNVAWYQQKPGQSPKALIYSASYRYSGVPDRFTGSGSGTDFTLTISNVQSEDLAEYFCQQYNSYPYTFGGGTKLEIK
B3: IL-P7-A06 (antibody, V domains shown)
VH: QVQLQQSGPEVVRPGVSVKISCKGSGYTFTDYAMHWVKQSHAKSLEWIGIINTYNGNTNYNQKFKGKATMTVDKSSSTAYMEFARLTSEDSAIYYCARSRGPWDRYFDVWGAGTTVTVSS
VL: B2 VL with N32A, A46L, Y53N, S56T, V78M, E85D, N92S, Y96F, G100S
B4: IL-P6-D06 (antibody, V domains shown)
VH: QVQLQQSGPELVRPGVSVKISCKGSGYTFTDYAIHWVKQSHAKSLEWIGVINTYSGNTNYNQKFKGRATMTVDKSSSTAYMELARLTSEDSAIYFCARGVTYGSGYPYWYFDVWGAGTTVTVSS
VL: B2 VL
B5: IL-P6-C08 (antibody, V domains shown)
VH: EVKLVESGGDLVKPGGSLKLSCAASGFTFSSYGMSWVRQTSDKRLEWVATISGGGRYTYYPDSVKGRFTISRDSSKNTLYLQMSSLKSEDTAMYYCVRHYDGYLDYWGLGTTLTVSS
VL: DIQMIQSPASLSASVGETVTITCRASENIYSYLAWYQQKQGKSPQLLVYNAKTLAEGVPSRFSGSGSGTQFSLKINSLQPEDFGSYYCQHHYGTPPYTFGGGTKLEIK
B6: IL-P7-C05 (antibody, V domains shown)
VH: EVQLVESGGDLVQPGGSLKLSCAASGFTFSSYGMSWVRQTPDKRLELVATINSNGGTTYYPDSVKGRFTISRDNAKHTLYLQMSSLKSEDTAMYYCTRNEEFRRGLAYWGQGTLVTVSA
VL: DIQMIQSPASLSVSVGETVTITCRASENIYSNLAWYQQKQGKSPQLLVYAATNLADGVPSRFSGSGSGTQYSLKINSLQSEDFGSYYCQHFWGTPPWTFGGGTKLEIK
B7: IL-P6-C11 (antibody, V domains shown)
VH: EVQLQQSGPELVKPGASVRISCKTSGYTFTDYVIHWVKQNHGGSLEWIGGINRDSGGTTYNQKFQDKVTLTVDKSSNTAYMELRSLTSEDSAVYYCTKWKFPWYFDVWGAGTTVTVSS
VL: DIELTQSPAIMSASPGEKVTMTCSASSSISYMHWYQQKPGTSPKRWIYDTSKLASGVPARFSGSGSGTSYSLTISRVEAEDAATYYCQQWSSNPLTFGSGTKLEIK
B8: IL-P6-B07 (antibody, V domains shown)
VH: B7 VH with D31E
VL: B7 VL with E3V, I29V, P39S, R76S, V77M, S99A, I105L
B9: IL-P7-C05-H4L3 (antibody, V domains shown)
VH: EVQLVESGGGLVQPGGSLRLSCAASGFTFSSYAMSWVRQAPGKGLELVAAINSNGGSTYYADSVKGRFTISRDNAKNTLYLQMSSLRAEDTAVYYCTRNEEFRRGLAYWGQGTLVTVSS
VL: DIQMTQSPSSLSASVGDRVTITCRASENIYSNLAWYQQKPGKAPKLLIYAASNLQSGVPSRFSGSGSGTDYTLTISSLQPEDFATYYCQHFWGTPPWTFGQGTKLEIK
B10: IL-P7-C05-H3L1 (antibody, V domains shown)
VH: B9 VH with A33G
VL: B9 VL with I48V, S52T, Q55A, S56D
B11: IL-P7-C05-H3L3 (antibody, V domains shown)
VH: B9 VH with A33G
VL: B9 VL
B12: IL-P7-C05-H4L1 (antibody, V domains shown)
VH: B9 VH
VL: B9 VL with I48V, S52T, Q55A, S56D
B13: IL-P7-C05-H2L2 (antibody, V domains shown)
VH: B9 VH with A33G, A50T, S57T
VL: B9 VL with I48V, S52T
B14: IL-P7-C05-H2L1 (antibody, V domains shown)
VH: B9 VH with A33G, A50T, S57T
VL: B9 VL with I48V, S52T, Q55A, S56D
B15: IL-P7-C05-H1L1 (antibody, V domains shown)
VH: B9 VH with A33G, A50T, S57T, A61P, N77H
VL: B9 VL with I48V, S52T, Q55A, S56D
B16: IL-P5-C06-H2L2 (antibody, V domains shown)
VH: QVQLVQSGAEVKKPGASVKVSCKGSGYTFTDYAIHWGRQAPGQGLEWIGIINTYNGNSNYAQKFQGRATMTRDTSTSTAYMELSRLRSEDTAVYYCARNYGSSFNWYFDVWGQGTTVTVSS
VL: DIQLTQSPSSLSASVGDRITITCRASSSISSNYLHWYQQKPGKAPKLLIYSTSNLASGVPSRFSGSGSGTDFTLTISSVQPEDFATYYCQQYSGYPLTFGQGTKLELK
B17: IL-P5-C06-H2L4 (antibody, V domains shown)
VH: B16 VH
VL: B16 VL with L4M, I19V, A56Q, V79L
B18: IL-P5-C06-H1L4 (antibody, V domains shown)
VH: B16 VH with G37A, R72V, T74K
VL: B16 VL with L4M, I19V, A56Q, V79L
B19: IL-P5-C06-H3L4 (antibody, V domains shown)
VH: B16 VH with G24A, I48M, A68V
VL: B16 VL with L4M, I19V, A56Q, V79L
B20: IL-P5-C06-H1L3 (antibody, V domains shown)
VH: B16 VH with G37A, R72V, T74K
VL: B16 VL with I19V, V79L
B21: IL-P5-C06-H3L3 (antibody, V domains shown)
VH: B16 VH with G24A, I48M, A68V
VL: B16 VL with I19V, V79L
B22: IL-P5-C06-H2L3 (antibody, V domains shown)
VH: B16 VH
VL: B16 VL with I19V, V79L
B23: IL-P5-C06-H1L1 (antibody, V domains shown)
VH: B16 VH with G37A, R72V, T74K
VL: B16 VL with L11M, A44S, F72Y

These binders were tested against Human B7-H3-his (human) (UniProt Q5ZPR3) (assay: ELISA, antigen coated at 2 µg/mL).

EC50 [µg/mL]	Binder
0.177	B1
0.137	B2
0.195	B3
0.174	B4
0.0424	B5
0.0788	B6
0.23	B7
0.132	B8

The binders below were run against Human B7-H3-his (human) (UniProt Q5ZPR3) (assay: ELISA, human B7-H3 at protein level (second run)).

EC50 [µg/mL]	Binder
0.302	B1
0.248	B2
0.172	B3
0.233	B4
0.088	B5
0.0395	B9
0.026	B10
0.071	B11
0.035	B12
0.051	B13
0.111	B14
0.044	B6
0.053	B15
0.182	B7
0.194	B8
0.147	B16
0.223	B17
0.237	B18
0.156	B19
0.164	B20
0.151	B21
0.151	B22
0.206	B23
